In paper PMC10521137:

Molecular target: Rad53 FHA1 domain, 1-165 (UniProt P22216)
Test: biotin-peptide streptavidin pulldown, Coomassie stain
Conditions: reference: unphosphorylated peptide (peptide 1); sites T402

Substance: Pol1 (catalytic subunit of DNA polymerase alpha) 393-412 (from UniProt P13382) pT402 peptide (peptide 2)
- binding against the reference: gained
